The EC50 is the concentration that produces a half-maximal response. A low value points to higher potency in that assay.

In test [1] the target is ILT4 (CHO-S/ILT4 cells) (human). Description: FACS. In general terms: A flow cytometer gives signals particle by particle.
Test [2] has the same target. The experiment in a line: FACS, assay 2.
The target is the same in test [3]. The experiment in a line: FACS, assay 3.
Test [4] has the same target. The experiment in a line: FACS, assay 4.

Sequence of ILT4 (CHO-S/ILT4 cells) (human) (chain, as listed by the source): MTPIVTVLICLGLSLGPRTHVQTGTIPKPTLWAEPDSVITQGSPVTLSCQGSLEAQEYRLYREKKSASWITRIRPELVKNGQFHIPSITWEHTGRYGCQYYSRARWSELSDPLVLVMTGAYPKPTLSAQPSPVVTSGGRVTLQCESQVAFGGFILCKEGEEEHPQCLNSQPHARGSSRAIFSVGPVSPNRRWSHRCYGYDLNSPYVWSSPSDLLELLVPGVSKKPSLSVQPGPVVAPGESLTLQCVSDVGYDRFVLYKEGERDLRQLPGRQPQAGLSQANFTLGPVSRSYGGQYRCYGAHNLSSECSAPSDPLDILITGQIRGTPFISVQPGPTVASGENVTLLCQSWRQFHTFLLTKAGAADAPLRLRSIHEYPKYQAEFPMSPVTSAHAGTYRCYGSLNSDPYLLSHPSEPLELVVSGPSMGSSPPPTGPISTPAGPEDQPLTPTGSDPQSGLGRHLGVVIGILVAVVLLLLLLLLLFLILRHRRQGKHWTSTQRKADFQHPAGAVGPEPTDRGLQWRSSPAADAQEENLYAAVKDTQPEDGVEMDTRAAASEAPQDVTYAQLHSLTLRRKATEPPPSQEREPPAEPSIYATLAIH

B1: huP2-C6 (antibody, V domains shown)
VH: EVQLVQSGAEVKKPGASVKVSCKASGYTFTDYYIHWVRQAPGQGLEWMGYIYPDTGYSGYNQKFKGRVTMTVDKSTSTAYMELRSLRSDDTAVYYCTRRGDYSGVHFDYWGQGTTVTVSS
VL: DIVLTQSPDSLAVSLGERATINCRASESVNNYGVGFLHWYQQKPGQPPKLLIYRASTLESGIPDRFSGSGSGTDFTLTISSLQAEDVAVYYCQHSYKDPPWTFGGGTKVEIK
B1: a half-maximal response with ILT4 (CHO-S/ILT4 cells) [1] (EC50) required 0.0368 µg/mL.

B2: P2m (antibody, V domains shown)
VH: QVQLVQSGAEVKKPGSSVKVSCKASGYTFTSYDISWVRQAPGQGLEWMGGIIPIFGTANYAQKFQGRVTITADESTSTAYMELSSLRSEDTAVYYCTAGIFLATAYWGQGTLVTVSS
VL: DIQMTQSPSSMSASVGDRVTISCQASQDIQNYLNWYQQRPGQAPKLLIYDASTLETGVPSRFSGSGSGTYFTLTISSLQPEDVATYYCQQYENVPITFGQGTRLEIK
B2 gave an EC50 with ILT4 (CHO-S/ILT4 cells) [1] of 0.0163 µg/mL.

B3: huP2-G9 (antibody, V domains shown)
VH: EVQLQESGPGLVKPSQTLSLTCTVSGSSITSGYYWNWIRQHPGKGLEWIGYLSYDGSNNYNPSLKNLVTISRDTSKNQFSLKLSSVTAADTAVYYCAREGAHYSGTLSWFAYWGQGTLVTVSS
VL: DIQMTQSPSSLSASVGDRVTITCRASENIYSNLAWYQQKPGKSPKLLVYAATNLADGVPSRFSGSGSGTDYTLTISSLQPEDFATYYCQHFWDTPYTFGGGTKVEIK
In the test with ILT4 (CHO-S/ILT4 cells) [1], B3 registered a concentration giving a half-maximal response (EC50) of 0.045 µg/mL.

B4: MK (antibody, V domains shown)
VH: EVQLQQWGAGLLKPSETLSLTCAVYGGSFSGYYWSWIRQPPGKGLEWIGEINHAGSTNYNPSLKSRVTISVDTSKNQFSLKLSSVTAADTAVYYCARLPTRWVTTRYFDLWGRGTLVTVSS
VL: ESVLTQPPSVSGAPGQRVTISCTGSSSNIGAGYDVHWYQQLPGTAPKLLIYGDSNRPSGVPDRFSVSKSGASASLAITGLQAEDEADYYCQSFDNSLSAYVFGGGTQLTVLG
Consider B4, for which the EC50 worked out at 0.0415 µg/mL with ILT4 (CHO-S/ILT4 cells) [2], 0.301 µg/mL in the test with ILT4 (CHO-S/ILT4 cells) [3] and 0.0139 µg/mL with ILT4 (CHO-S/ILT4 cells) [4].
